Data as given in patent US20250340643A1 (AstraZeneca / MedImmune, published 2025).
Read-outs that look alike come from different tables or passages of the source.

What was measured:
[1] = target: T1, CTLA4 on the cells of the reporter gene bioassay (human, UniProt P16410 36-223); assay: cell-based or functional assay
T1 sequence (looked up): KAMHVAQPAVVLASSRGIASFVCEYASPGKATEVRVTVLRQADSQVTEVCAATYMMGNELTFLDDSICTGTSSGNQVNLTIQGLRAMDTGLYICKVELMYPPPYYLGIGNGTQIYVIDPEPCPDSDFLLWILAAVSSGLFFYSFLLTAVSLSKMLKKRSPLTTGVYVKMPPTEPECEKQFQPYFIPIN

recombinant FcRn [2] = target: T2, recombinant FcRn (UniProt P55899 24-297; P61769 21-119, limits assumed); assay: SPR, recombinant FcRn immobilized on the sensor; relative to Reference Standard
T2 construct: also called Neonatal Fc Receptor
T2 sequence (P55899 24-297 limits assumed, form in doubt, chain 1 of 2): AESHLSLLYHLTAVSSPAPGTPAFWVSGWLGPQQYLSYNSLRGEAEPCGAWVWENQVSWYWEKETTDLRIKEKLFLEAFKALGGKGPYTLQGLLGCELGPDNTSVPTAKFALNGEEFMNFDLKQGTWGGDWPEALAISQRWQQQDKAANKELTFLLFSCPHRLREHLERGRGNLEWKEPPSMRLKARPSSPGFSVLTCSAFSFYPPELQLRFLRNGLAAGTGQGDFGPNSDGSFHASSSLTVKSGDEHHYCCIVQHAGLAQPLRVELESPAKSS
T2 sequence (P61769 21-119 limits assumed, form in doubt, chain 2 of 2): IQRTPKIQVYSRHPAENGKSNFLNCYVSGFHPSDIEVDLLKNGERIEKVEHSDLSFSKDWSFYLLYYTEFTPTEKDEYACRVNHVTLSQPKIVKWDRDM
Source text: (§1) A surface plasmon resonance binding assay was used to measure FcRn binding. This method is based on the ability of the test sample to bind to recombinant FcRn that has been immobilized on an SPR sensor surface. A reference flow cell was created using the same standard amine coupling procedure without the addition of FcRn.

[3] = target: T1, CTLA4 on the cells of the reporter gene …; assay: cell-based or functional assay; remark: listed apart in the source
recombinant FcRn [4] = target: T2, recombinant FcRn; assay: SPR, recombinant FcRn immobilized on the sensor; relative to Reference Standard; remark: listed apart in the source
Source text: as §1

B1: Tremelimumab, cool white light about 2000 lux for 14 days, DP (2R vial, horizontal) (antibody, human IgG2, kappa)
heavy: QVQLVESGGGVVQPGRSLRLSCAASGFTFSSYGMHWVRQAPGKGLEWVAVIWYDGSNKYYADSVKGRFTISRDNSKNTLYLQMNSLRAEDTAVYYCARDPRGATLYYYYYGMDVWGQGTTVTVSSASTKGPSVFPLAPCSRSTSESTAALGCLVKDYFPEPVTVSWNSGALTSGVHTFPAVLQSSGLYSLSSVVTVPSSNFGTQTYTCNVDHKPSNTKVDKTVERKCCVECPPCPAPPVAGPSVFLFPPKPKDTLMISRTPEVTCVVVDVSHEDPEVQFNWYVDGVEVHNAKTKPREEQFNSTFRVVSVLTVVHQDWLNGKEYKCKVSNKGLPAPIEKTISKTKGQPREPQVYTLPPSREEMTKNQVSLTCLVKGFYPSDIAVEWESNGQPENNYKTTPPMLDSDGSFFLYSKLTVDKSRWQQGNVFSCSVMHEALHNHYTQKSLSLSPGK
light: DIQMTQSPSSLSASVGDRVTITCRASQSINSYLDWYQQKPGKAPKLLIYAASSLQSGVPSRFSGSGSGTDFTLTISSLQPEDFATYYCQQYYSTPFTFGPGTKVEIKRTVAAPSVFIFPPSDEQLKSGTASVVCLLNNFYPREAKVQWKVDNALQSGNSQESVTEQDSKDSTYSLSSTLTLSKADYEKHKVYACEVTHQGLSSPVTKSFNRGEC
modifications: oxidation by peptide mapping: Trp-52 6.4%, Met-256 7.8%, Met-362 2.5%, Met-401 2.7%, Met-432 5.4%
notes: also called DP (2R vial, horizontal) 14
[1]
  Relative Potency (%): 97%
Recombinant FcRn [2]
  Relative FcRn Binding (%): 92%

B2: Tremelimumab, photo-stress study at 2000 lux, t = 0 control (antibody, human IgG2, kappa)
heavy: QVQLVESGGGVVQPGRSLRLSCAASGFTFSSYGMHWVRQAPGKGLEWVAVIWYDGSNKYYADSVKGRFTISRDNSKNTLYLQMNSLRAEDTAVYYCARDPRGATLYYYYYGMDVWGQGTTVTVSSASTKGPSVFPLAPCSRSTSESTAALGCLVKDYFPEPVTVSWNSGALTSGVHTFPAVLQSSGLYSLSSVVTVPSSNFGTQTYTCNVDHKPSNTKVDKTVERKCCVECPPCPAPPVAGPSVFLFPPKPKDTLMISRTPEVTCVVVDVSHEDPEVQFNWYVDGVEVHNAKTKPREEQFNSTFRVVSVLTVVHQDWLNGKEYKCKVSNKGLPAPIEKTISKTKGQPREPQVYTLPPSREEMTKNQVSLTCLVKGFYPSDIAVEWESNGQPENNYKTTPPMLDSDGSFFLYSKLTVDKSRWQQGNVFSCSVMHEALHNHYTQKSLSLSPGK
light: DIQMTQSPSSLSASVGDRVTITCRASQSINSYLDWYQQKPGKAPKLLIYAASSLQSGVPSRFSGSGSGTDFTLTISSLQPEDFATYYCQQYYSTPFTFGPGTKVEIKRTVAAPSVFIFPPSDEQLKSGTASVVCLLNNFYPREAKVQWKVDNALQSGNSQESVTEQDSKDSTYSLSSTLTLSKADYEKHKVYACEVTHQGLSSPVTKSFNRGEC
modifications: oxidation by peptide mapping: Trp-52 0.7%, Met-256 3.3%, Met-362 1.4%, Met-401 1.6%, Met-432 1.0%
[1]
  Relative Potency (%): 102%
Recombinant FcRn [2]
  Relative FcRn Binding (%): 98%

B3: Tremelimumab, photo-stress study according to ICH guideline, Dark control (antibody, human IgG2, kappa)
heavy: QVQLVESGGGVVQPGRSLRLSCAASGFTFSSYGMHWVRQAPGKGLEWVAVIWYDGSNKYYADSVKGRFTISRDNSKNTLYLQMNSLRAEDTAVYYCARDPRGATLYYYYYGMDVWGQGTTVTVSSASTKGPSVFPLAPCSRSTSESTAALGCLVKDYFPEPVTVSWNSGALTSGVHTFPAVLQSSGLYSLSSVVTVPSSNFGTQTYTCNVDHKPSNTKVDKTVERKCCVECPPCPAPPVAGPSVFLFPPKPKDTLMISRTPEVTCVVVDVSHEDPEVQFNWYVDGVEVHNAKTKPREEQFNSTFRVVSVLTVVHQDWLNGKEYKCKVSNKGLPAPIEKTISKTKGQPREPQVYTLPPSREEMTKNQVSLTCLVKGFYPSDIAVEWESNGQPENNYKTTPPMLDSDGSFFLYSKLTVDKSRWQQGNVFSCSVMHEALHNHYTQKSLSLSPGK
light: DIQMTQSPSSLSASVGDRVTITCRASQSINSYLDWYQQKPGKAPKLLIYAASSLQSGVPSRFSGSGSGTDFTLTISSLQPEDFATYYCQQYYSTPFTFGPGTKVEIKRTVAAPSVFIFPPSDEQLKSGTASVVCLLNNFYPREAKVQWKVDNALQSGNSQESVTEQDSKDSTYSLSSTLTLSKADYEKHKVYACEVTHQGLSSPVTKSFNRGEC
modifications: oxidation by peptide mapping: Trp-52 3.3%, Met-256 2.8%, Met-362 1.3%, Met-401 1.3%, Met-432 0.6%
[1]
  Relative Potency (%): 107%
Recombinant FcRn [2]
  Relative FcRn Binding (%): 91%

B4: Tremelimumab, photo-stressed, DP 1x ICH (antibody, human IgG2, kappa)
heavy: QVQLVESGGGVVQPGRSLRLSCAASGFTFSSYGMHWVRQAPGKGLEWVAVIWYDGSNKYYADSVKGRFTISRDNSKNTLYLQMNSLRAEDTAVYYCARDPRGATLYYYYYGMDVWGQGTTVTVSSASTKGPSVFPLAPCSRSTSESTAALGCLVKDYFPEPVTVSWNSGALTSGVHTFPAVLQSSGLYSLSSVVTVPSSNFGTQTYTCNVDHKPSNTKVDKTVERKCCVECPPCPAPPVAGPSVFLFPPKPKDTLMISRTPEVTCVVVDVSHEDPEVQFNWYVDGVEVHNAKTKPREEQFNSTFRVVSVLTVVHQDWLNGKEYKCKVSNKGLPAPIEKTISKTKGQPREPQVYTLPPSREEMTKNQVSLTCLVKGFYPSDIAVEWESNGQPENNYKTTPPMLDSDGSFFLYSKLTVDKSRWQQGNVFSCSVMHEALHNHYTQKSLSLSPGK
light: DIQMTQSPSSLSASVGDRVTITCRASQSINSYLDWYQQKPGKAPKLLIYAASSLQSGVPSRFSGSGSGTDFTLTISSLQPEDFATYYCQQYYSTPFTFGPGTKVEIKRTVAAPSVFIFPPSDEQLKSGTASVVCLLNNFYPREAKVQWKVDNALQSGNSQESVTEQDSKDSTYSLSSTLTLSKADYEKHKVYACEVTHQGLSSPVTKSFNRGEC
modifications: oxidation by peptide mapping: Trp-52 10.9%, Met-256 12.1%, Met-362 3.8%, Met-401 4.1%, Met-432 11.9%
[1]
  Relative Potency (%): 87%
Recombinant FcRn [2]
  Relative FcRn Binding (%): 78%

B5: Tremelimumab, photo-stressed, DP 3x ICH (antibody, human IgG2, kappa)
heavy: QVQLVESGGGVVQPGRSLRLSCAASGFTFSSYGMHWVRQAPGKGLEWVAVIWYDGSNKYYADSVKGRFTISRDNSKNTLYLQMNSLRAEDTAVYYCARDPRGATLYYYYYGMDVWGQGTTVTVSSASTKGPSVFPLAPCSRSTSESTAALGCLVKDYFPEPVTVSWNSGALTSGVHTFPAVLQSSGLYSLSSVVTVPSSNFGTQTYTCNVDHKPSNTKVDKTVERKCCVECPPCPAPPVAGPSVFLFPPKPKDTLMISRTPEVTCVVVDVSHEDPEVQFNWYVDGVEVHNAKTKPREEQFNSTFRVVSVLTVVHQDWLNGKEYKCKVSNKGLPAPIEKTISKTKGQPREPQVYTLPPSREEMTKNQVSLTCLVKGFYPSDIAVEWESNGQPENNYKTTPPMLDSDGSFFLYSKLTVDKSRWQQGNVFSCSVMHEALHNHYTQKSLSLSPGK
light: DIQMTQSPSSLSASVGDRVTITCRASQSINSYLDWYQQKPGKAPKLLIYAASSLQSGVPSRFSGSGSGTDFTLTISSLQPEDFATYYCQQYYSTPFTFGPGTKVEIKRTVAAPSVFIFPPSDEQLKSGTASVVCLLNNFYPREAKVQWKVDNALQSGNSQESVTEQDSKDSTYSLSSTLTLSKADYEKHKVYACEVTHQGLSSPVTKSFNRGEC
modifications: oxidation by peptide mapping: Trp-52 36.7%, Met-256 41.9%, Met-362 12.8%, Met-401 15.8%, Met-432 34.6%
[1]
  Relative Potency (%): 59%
Recombinant FcRn [2]
  Relative FcRn Binding (%): 41%

B6: Tremelimumab, cool white light about 2000 lux for 14 days, DP (2R vial vertical) (antibody, human IgG2, kappa)
heavy: QVQLVESGGGVVQPGRSLRLSCAASGFTFSSYGMHWVRQAPGKGLEWVAVIWYDGSNKYYADSVKGRFTISRDNSKNTLYLQMNSLRAEDTAVYYCARDPRGATLYYYYYGMDVWGQGTTVTVSSASTKGPSVFPLAPCSRSTSESTAALGCLVKDYFPEPVTVSWNSGALTSGVHTFPAVLQSSGLYSLSSVVTVPSSNFGTQTYTCNVDHKPSNTKVDKTVERKCCVECPPCPAPPVAGPSVFLFPPKPKDTLMISRTPEVTCVVVDVSHEDPEVQFNWYVDGVEVHNAKTKPREEQFNSTFRVVSVLTVVHQDWLNGKEYKCKVSNKGLPAPIEKTISKTKGQPREPQVYTLPPSREEMTKNQVSLTCLVKGFYPSDIAVEWESNGQPENNYKTTPPMLDSDGSFFLYSKLTVDKSRWQQGNVFSCSVMHEALHNHYTQKSLSLSPGK
light: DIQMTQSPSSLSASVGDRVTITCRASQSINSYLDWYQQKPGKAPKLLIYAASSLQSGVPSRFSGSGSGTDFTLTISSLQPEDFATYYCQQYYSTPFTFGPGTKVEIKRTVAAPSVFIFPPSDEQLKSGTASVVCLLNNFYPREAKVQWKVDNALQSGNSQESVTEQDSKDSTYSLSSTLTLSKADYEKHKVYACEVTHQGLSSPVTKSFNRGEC
modifications: oxidation by peptide mapping: Trp-52 5.4%, Met-256 7.1%, Met-362 2.2%, Met-401 2.5%, Met-432 4.7%
[1]
  Relative Potency (%): 90%
Recombinant FcRn [2]
  Relative FcRn Binding (%): 94%

B7: Tremelimumab incubated with 100 ppm H2O2 for 4 days (antibody, human IgG2, kappa)
heavy: QVQLVESGGGVVQPGRSLRLSCAASGFTFSSYGMHWVRQAPGKGLEWVAVIWYDGSNKYYADSVKGRFTISRDNSKNTLYLQMNSLRAEDTAVYYCARDPRGATLYYYYYGMDVWGQGTTVTVSSASTKGPSVFPLAPCSRSTSESTAALGCLVKDYFPEPVTVSWNSGALTSGVHTFPAVLQSSGLYSLSSVVTVPSSNFGTQTYTCNVDHKPSNTKVDKTVERKCCVECPPCPAPPVAGPSVFLFPPKPKDTLMISRTPEVTCVVVDVSHEDPEVQFNWYVDGVEVHNAKTKPREEQFNSTFRVVSVLTVVHQDWLNGKEYKCKVSNKGLPAPIEKTISKTKGQPREPQVYTLPPSREEMTKNQVSLTCLVKGFYPSDIAVEWESNGQPENNYKTTPPMLDSDGSFFLYSKLTVDKSRWQQGNVFSCSVMHEALHNHYTQKSLSLSPGK
light: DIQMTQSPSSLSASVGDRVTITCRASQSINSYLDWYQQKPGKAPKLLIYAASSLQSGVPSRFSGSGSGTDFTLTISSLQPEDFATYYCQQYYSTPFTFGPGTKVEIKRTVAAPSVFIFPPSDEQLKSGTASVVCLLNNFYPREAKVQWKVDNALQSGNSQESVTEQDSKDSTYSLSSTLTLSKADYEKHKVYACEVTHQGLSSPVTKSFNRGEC
modifications: oxidation by peptide mapping: Met-256 79.8%, Met-362 36.3%, Met-401 63.7%, Met-432 53.0%
[3]
  Relative Potency (%): 98%
Recombinant FcRn [4]
  Relative FcRn Binding (%): 24%
